From patent US20100111943A1 (MEDICAL COLLEGE OF GEORGIA RESEARCH INSTITUTE, published 2010)

How the values were obtained:
Test in all cases: co-IP: anti-FLAG M2 immunoprecipitates immunoblotted with anti-CHIP
[1] = target: T1, FLAG (F)-tagged hsp90α K100R mutant (UniProt P07900 1-732)
T1 construct: Made by site-directed mutagenesis, expressed by transfection; also called K/R mutant at K100; acetylation-deficient mutant; not shown: FLAG tag
Protocol: (§1) Following culture in the plates for 24 hours, cells were transfected by Lipofectamine Plus following the protocol provided by Invitrogen (Carlsbad, Calif.). Transfected cells were cultured in full-medium containing drugs dissolved in DMSO or vehicle for 24 hours. Cellular extracts were prepared by directly adding lysis buffer (25 mM Tris-phosphate, pH 7.8, 2 mM DTT, 2 mM 1,2-diaminocyclohexane-N′,N′,N′,N′-tetraacetic acid, 10% glycerol, 0.2% Triton X-100) to the cells on ice. For immuno-precipitations (IP), 2×10⁶ cells in 100 mm dishes were transfected and/or treated as described above. Cellular extracts were prepared and immunoprecipitation performed as described 24. For immunoblotting, cellular extracts or immunoprecipitates were separated on SDS-PAGE, transferred to a nitrocellulose membrane, probed with antibodies, and visualized with enhanced chemiluminescence, as described (Chen, Z., et al., Mol. Pharmacol., 69:1527-33 (2006)).
(§2) The mutants were also analyzed for their ability to bind ATP, as well as for binding to co-chaperones, client proteins and the biotinylated (B) GA (geldanamycin) (Kamal, A., et al., Nature., 425:407-10 (2003)). Precipitates from the mixture of cell lysates containing hsp90α and ATP-sepharose were analyzed with anti-F antibody.

[2] = target: T2, FLAG (F)-tagged hsp90α K478R mutant (UniProt P07900 1-732)
T2 construct: Made by site-directed mutagenesis, expressed by transfection; also called K/R mutant at K478; acetylation-deficient mutant; not shown: FLAG tag
Protocol: as §1, §2

[3] = target: T3, FLAG (F)-tagged hsp90α K327R mutant (UniProt P07900 1-732)
T3 construct: Made by site-directed mutagenesis, expressed by transfection; also called K/R mutant at K327; acetylation-deficient mutant; not shown: FLAG tag
Protocol: as §1, §2

[4] = target: T4, FLAG (F)-tagged hsp90α (wild type) (UniProt P07900 1-732)
T4 construct: Expressed from a plasmid described in cited literature, or translated in vitro; also called F-hsp90α; F-hsp90; not shown: FLAG tag
Protocol: as §1, §2

[5] = target: T5, FLAG (F)-tagged hsp90α K69R mutant (UniProt P07900 1-732)
T5 construct: Made by site-directed mutagenesis, expressed by transfection; also called K/R mutant at K69; acetylation-deficient mutant; not shown: FLAG tag
Protocol: as §1, §2

[6] = target: T6, FLAG (F)-tagged hsp90α K546R mutant (UniProt P07900 1-732)
T6 construct: Made by site-directed mutagenesis, expressed by transfection; also called K/R mutant at K546; acetylation-deficient mutant; not shown: FLAG tag
Protocol: as §1, §2

[7] = target: T7, FLAG (F)-tagged hsp90α K292R mutant (UniProt P07900 1-732)
T7 construct: Made by site-directed mutagenesis, expressed by transfection; also called K/R mutant at K292; acetylation-deficient mutant; not shown: FLAG tag
Protocol: as §1, §2

[8] = target: T8, FLAG (F)-tagged hsp90α K292Q mutant (UniProt P07900 1-732)
T8 construct: Made by site-directed mutagenesis, expressed by transfection; also called K/Q mutant at K292; acetylation-mimetic mutant; not shown: FLAG tag
Protocol: as §1, §2

[9] = target: T9, FLAG (F)-tagged hsp90α K558R mutant (UniProt P07900 1-732)
T9 construct: Made by site-directed mutagenesis, expressed by transfection; also called K/R mutant at K558; acetylation-deficient mutant; not shown: FLAG tag
Protocol: as §1, §2

Measured: binding result

B1: CHIP (other, UniProt Q9UNE7 1-303, looked up)
chain: MKGKEEKEGGARLGAGGGSPEKSPSAQELKEQGNRLFVGRKYPEAAACYGRAITRNPLVAVYYTNRALCYLKMQQHEQALADCRRALELDGQSVKAHFFLGQCQLEMESYDEAIANLQRAYSLAKEQRLNFGDDIPSALRIAKKKRWNSIEERRIHQESELHSYLSRLIAAERERELEECQRNHEGDEDDSHVRAQQACIEAKHDKYMADMDELFSQVDEKRKKRDIPDYLCGKISFELMREPCITPSGITYDRKDIEEHLQRVGHFDPVTRSPLTQEQLIPNLAMKEVIDAFISENGWVEDY
notes: Endogenous protein co-immunoprecipitated from cell lysates and detected with anti-CHIP
binds: all assays above
